Test results: publication PMC11098746 (2024)

T1: ADP141
T1 chain: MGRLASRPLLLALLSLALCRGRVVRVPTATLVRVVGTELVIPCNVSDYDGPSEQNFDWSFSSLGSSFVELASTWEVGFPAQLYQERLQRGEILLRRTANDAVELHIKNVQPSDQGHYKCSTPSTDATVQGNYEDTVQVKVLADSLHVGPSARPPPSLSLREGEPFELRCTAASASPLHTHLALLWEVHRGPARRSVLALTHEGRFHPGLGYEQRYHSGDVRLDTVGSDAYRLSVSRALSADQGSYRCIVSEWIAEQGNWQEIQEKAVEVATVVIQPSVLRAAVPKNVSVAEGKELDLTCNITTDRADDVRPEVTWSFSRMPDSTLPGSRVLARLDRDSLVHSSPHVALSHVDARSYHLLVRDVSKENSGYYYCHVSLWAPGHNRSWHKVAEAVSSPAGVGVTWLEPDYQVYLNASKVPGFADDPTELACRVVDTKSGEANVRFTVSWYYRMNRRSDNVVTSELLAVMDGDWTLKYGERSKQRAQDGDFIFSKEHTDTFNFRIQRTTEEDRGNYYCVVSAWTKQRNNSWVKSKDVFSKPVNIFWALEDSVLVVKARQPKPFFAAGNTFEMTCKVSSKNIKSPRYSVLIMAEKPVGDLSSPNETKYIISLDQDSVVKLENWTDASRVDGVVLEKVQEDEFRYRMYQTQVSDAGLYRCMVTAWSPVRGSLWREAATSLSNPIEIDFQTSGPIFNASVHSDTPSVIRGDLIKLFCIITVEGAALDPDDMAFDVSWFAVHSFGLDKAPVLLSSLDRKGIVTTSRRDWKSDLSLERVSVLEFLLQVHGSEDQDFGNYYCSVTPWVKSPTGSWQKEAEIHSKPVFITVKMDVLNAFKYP

T2: ADP317
T2 chain: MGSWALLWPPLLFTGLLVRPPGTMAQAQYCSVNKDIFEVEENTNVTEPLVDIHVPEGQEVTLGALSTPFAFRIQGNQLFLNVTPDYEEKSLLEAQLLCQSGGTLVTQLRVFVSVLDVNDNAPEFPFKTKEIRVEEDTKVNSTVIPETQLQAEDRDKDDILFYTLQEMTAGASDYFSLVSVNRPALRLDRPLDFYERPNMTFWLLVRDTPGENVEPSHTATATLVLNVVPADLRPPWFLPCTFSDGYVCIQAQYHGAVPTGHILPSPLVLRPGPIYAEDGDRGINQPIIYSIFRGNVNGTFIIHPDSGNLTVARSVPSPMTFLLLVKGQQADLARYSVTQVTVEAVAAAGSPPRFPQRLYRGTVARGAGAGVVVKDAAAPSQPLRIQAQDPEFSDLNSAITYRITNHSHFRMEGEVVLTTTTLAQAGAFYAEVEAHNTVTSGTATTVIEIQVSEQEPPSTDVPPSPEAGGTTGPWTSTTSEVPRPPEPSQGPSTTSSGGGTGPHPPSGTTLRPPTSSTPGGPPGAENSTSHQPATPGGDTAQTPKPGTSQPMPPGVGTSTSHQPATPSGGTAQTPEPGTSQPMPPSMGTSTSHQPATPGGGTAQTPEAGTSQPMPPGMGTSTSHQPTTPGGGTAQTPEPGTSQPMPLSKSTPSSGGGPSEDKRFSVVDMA

T3: ADP276
T3 chain: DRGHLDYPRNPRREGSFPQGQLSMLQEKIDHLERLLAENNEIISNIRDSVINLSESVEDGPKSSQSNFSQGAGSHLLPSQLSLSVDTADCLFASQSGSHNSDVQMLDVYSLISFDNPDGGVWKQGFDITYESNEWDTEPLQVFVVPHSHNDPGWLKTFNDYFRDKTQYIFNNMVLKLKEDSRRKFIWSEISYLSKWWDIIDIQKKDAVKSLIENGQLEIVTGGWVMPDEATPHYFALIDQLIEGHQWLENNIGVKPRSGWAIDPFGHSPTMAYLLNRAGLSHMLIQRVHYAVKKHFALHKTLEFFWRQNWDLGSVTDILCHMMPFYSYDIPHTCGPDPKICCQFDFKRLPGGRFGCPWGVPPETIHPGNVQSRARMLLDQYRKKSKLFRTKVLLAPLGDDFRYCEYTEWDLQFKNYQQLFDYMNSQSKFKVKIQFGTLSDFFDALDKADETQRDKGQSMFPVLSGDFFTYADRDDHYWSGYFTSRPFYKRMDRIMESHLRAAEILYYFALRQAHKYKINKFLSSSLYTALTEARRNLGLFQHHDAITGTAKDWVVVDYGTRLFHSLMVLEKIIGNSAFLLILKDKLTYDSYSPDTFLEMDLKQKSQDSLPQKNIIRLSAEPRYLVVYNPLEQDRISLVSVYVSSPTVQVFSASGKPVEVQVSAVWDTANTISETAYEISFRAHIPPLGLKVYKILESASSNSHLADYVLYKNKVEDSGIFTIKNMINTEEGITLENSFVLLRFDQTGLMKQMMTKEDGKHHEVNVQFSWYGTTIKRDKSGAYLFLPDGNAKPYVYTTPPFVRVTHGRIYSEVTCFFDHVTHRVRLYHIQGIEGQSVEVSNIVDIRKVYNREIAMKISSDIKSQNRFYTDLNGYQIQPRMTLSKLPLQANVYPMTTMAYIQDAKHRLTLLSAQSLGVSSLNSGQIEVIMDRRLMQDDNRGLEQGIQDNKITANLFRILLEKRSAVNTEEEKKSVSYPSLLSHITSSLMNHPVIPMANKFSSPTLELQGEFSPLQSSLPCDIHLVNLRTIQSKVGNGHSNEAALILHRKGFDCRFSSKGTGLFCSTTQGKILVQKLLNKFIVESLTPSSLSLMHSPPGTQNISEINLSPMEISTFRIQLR


Legend:
Test in all cases: AVEXIS screen signal:noise (double-corrected)
ADP141 = molecular target: T1, ADP141
ADP317 = molecular target: T2, ADP317
ADP276 = molecular target: T3, ADP276
ADP363 = molecular target: ADP363

| Binder | binding score (ADP141) | binding score (ADP317) | binding score (ADP276) | binding score (ADP363) |
| --- | --- | --- | --- | --- |
| ADP227 (protein, bait human Fc-tagged dimer; N-glycosylation sequons mutated in Plasmodium baits) LKVPIENAPFVFNKKENDIKYFLDKETPDDFLSNNAYSLDITLENFPNPFFHPSLCNRYGFKFSYICDPNKILSRNIADQIEEILNYQRRNSKHFCVDKEVPYVLGVALINKLPYGISADTFASQIFEYWKLSNKDCNDGVLLFFVKEDTHFILKWKKGAQSIINFRTATSMNKAFNQYLRKYSLEYSILSAVKLTSQYLTEEIIPPTQTAQK | 6.72 | 5.21 |  |  |
| ADP168 (protein, bait human Fc-tagged dimer; N-glycosylation sequons mutated in Plasmodium baits) NNIKLNDKENINFESYFNKRTNEENVLNKNVAKEMGDTFVAHKAIELNINHHHVNNDKEFNNNNNNKHQPYYHNEHDKKFSESLKAHMDHLKILNNDLKQHIDKKERNEIYENNDLKKYIIKEIQNNKYLNKEKKSSEDIQILEEHSKKLQKEIHEWLESVNNIEEKSNILKNIKSQLLNNIASLNHALSEEIKNINDIKELQKQQNDLFSENWLYFLPSSSDYLLNEKKKNLYDNQDNSMKDDINNNDKYNIFNYLQNVQDKDNQYEVMKQDNNNIHSGSS |  |  | 5.43 | 198 |
